# Measured values from ChEMBL document CHEMBL2074203, “Multidrug resistance protein MRP1 protects against the toxicity of the major lipid peroxidation product 4-hydroxynonenal” (Biochem J, 2000).
# Substrate: CCCCCC1OC(O)CC1SC[C@H](NC(=O)CC[C@H](N)C(=O)O)C(=O)NCC(=O)O
# Assay: TP_TRANSPORTER: uptake in membrane vesicle from MRP1-expressing High Five insect cells
# Assay type: functional, cell membranes, BTI-TN-5B1-4
protein,measurement,value
Multidrug resistance-associated protein 1 (Homo sapiens) (protein) MALRGFCSADGSDPLWDWNVTWNTSNPDFTKCFQNTVLVWVPCFYLWACFPFYFLYLSRHDRGYIQMTPLNKTKTALGFLLWIVCWADLFYSFWERSRGIFLAPVFLVSPTLLGITMLLATFLIQLERRKGVQSSGIMLTFWLVALVCALAILRSKIMTALKEDAQVDLFRDITFYVYFSLLLIQLVLSCFSDRSPLFSETIHDPNPCPESSASFLSRITFWWITGLIVRGYRQPLEGSDLWSLNKEDTSEQVVPVLVKNWKKECAKTRKQPVKVVYSSKDPAQPKESSKVDANEEVEALIVKSPQKEWNPSLFKVLYKTFGPYFLMSFFFKAIHDLMMFSGPQILKLLIKFVNDTKAPDWQGYFYTVLLFVTACLQTLVLHQYFHICFVSGMRIKTAVIGAVYRKALVITNSARKSSTVGEIVNLMSVDAQRFMDLATYINMIWSAPLQVILALYLLWLNLGPSVLAGVAVMVLMVPVNAVMAMKTKTYQVAHMKSKDNRIKLMNEILNGIKVLKLYAWELAFKDKVLAIRQEELKVLKKSAYLSAVGTFTWVCTPFLVALCTFAVYVTIDENNILDAQTAFVSLALFNILRFPLNILPMVISSIVQASVSLKRLRIFLSHEELEPDSIERRPVKDGGGTNSITVRNATFTWARSDPPTLNGITFSIPEGALVAVVGQVGCGKSSLLSALLAEMDKVEGHVAIKGSVAYVPQQAWIQNDSLRENILFGCQLEEPYYRSVIQACALLPDLEILPSGDRTEIGEKGVNLSGGQKQRVSLARAVYSNADIYLFDDPLSAVDAHVGKHIFENVIGPKGMLKNKTRILVTHSMSYLPQVDVIIVMSGGKISEMGSYQELLARDGAFAEFLRTYASTEQEQDAEENGVTGVSGPGKEAKQMENGMLVTDSAGKQLQRQLSSSSSYSGDISRHHNSTAELQKAEAKKEETWKLMEADKAQTGQVKLSVYWDYMKAIGLFISFLSIFLFMCNHVSALASNYWLSLWTDDPIVNGTQEHTKVRLSVYGALGISQGIAVFGYSMAVSIGGILASRCLHVDLLHSILRSPMSFFERTPSGNLVNRFSKELDTVDSMIPEVIKMFMGSLFNVIGACIVILLATPIAAIIIPPLGLIYFFVQRFYVASSRQLKRLESVSRSPVYSHFNETLLGVSVIRAFEEQERFIHQSDLKVDENQKAYYPSIVANRWLAVRLECVGNCIVLFAALFAVISRHSLSAGLVGLSVSYSLQVTTYLNWLVRMSSEMETNIVAVERLKEYSETEKEAPWQIQETAPPSSWPQVGRVEFRNYCLRYREDLDFVLRHINVTINGGEKVGIVGRTGAGKSSLTLGLFRINESAEGEIIIDGINIAKIGLHDLRFKITIIPQDPVLFSGSLRMNLDPFSQYSDEEVWTSLELAHLKDFVSALPDKLDHECAEGGENLSVGQRQLVCLARALLRKTKILVLDEATAAVDLETDDLIQSTIRTQFEDCTVLTIAHRLNTIMDYTRVIVLDKGEIQEYGAPSDLLQQRGLFYSMAKDAGLV,Km,1.6 µM
